Drawing on publication PMC11506057, “Identification of Podoplanin Aptamers by SELEX for Protein Detection and Inhibition of Platelet Aggregation Stimulated by C-Type Lectin-like Receptor 2”, this text covers Kd for 6 molecules.

For the series, the target named is T1, podoplanin (PDPN), recombinant PDPN-His-Fc (UniProt Q86YL7 23-131).
T1 sequence: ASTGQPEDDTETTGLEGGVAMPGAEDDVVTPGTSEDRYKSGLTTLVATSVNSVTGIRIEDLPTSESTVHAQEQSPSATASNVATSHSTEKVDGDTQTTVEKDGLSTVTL
The series is described as follows: BLI; BLI and dot blot: binding buffer B, 1x PBS, 5 mM MgCl2, 0.1% BSA, 0.01% yeast tRNA (BLI baseline in buffer A: 1x PBS, 5 mM MgCl2, 2 mM CaCl2, 1 mg/mL BSA, 0.1 mg/mL salmon sperm DNA); temperature and pH not given; flow cytometry at 4 C. The following applies: protein: commercial, tags: His.

Setting [1] is: chain copies: 2, label: biotin, antiparallel G-quadruplex or B-DNA (CD).
Where [2] appears, read: chain copies: 2, label: biotin, parallel G-quadruplex (CD), stem-loop predicted.

B1: A289 (structured_DNA)
DNA: ATCCAGAGTGACGCAGCACGGGTTTGGCGCCGGGCCTGGCGGGTGTAGCGTTTTTGGGTGGACACGGTGGCTTAGT
Turning to B1, the Kd under setting [1] came to 500 pM.

B2: A1 (structured_DNA)
DNA: ATCCAGAGTGACGCAGCATCACTAGTGCGCCAGGGGGACTGCTCGGGATTGCGGATACTGGACACGGTGGCTTAGT
B2: the Kd (chain copies: 2, label: biotin (BLI, dot blot, Western blot), FAM (flow cytometry), parallel G-quadruplex (CD), stem-loop predicted) was 1300 pM.

B3: A1498 (structured_DNA)
DNA: ATCCAGAGTGACGCAGCATGCAGGGTTTGGCTTCGGGCCTGGCGGAGAGAGCGTGAGGTGGACACGGTGGCTTAGT
On to B3, for which, under setting [1], the Kd was 400 pM.

B4: A77 (structured_DNA)
DNA: ATCCAGAGTGACGCAGCATGGGGGGAGAGTGTGGTCTGGCTTGGTGGGGTCTGGGGGCTGGACACGGTGGCTTAGT
Take B4: the Kd under setting [2] was 1700 pM.

B5: A5 (structured_DNA)
DNA: ATCCAGAGTGACGCAGCATGCCAAAGGGTCTGCTCGGGATTGCGGAGAGGGCTTGGGGTGGACACGGTGGCTTAGT
As to B5, the Kd under setting [2] was 200 pM.

B6: A6 (structured_DNA)
DNA: ATCCAGAGTGACGCAGCACACCGAGGGGACTGCTCGGGATTGCGGATGAGGTAGCAAGTGGACACGGTGGCTTAGT
For the molecule B6, under setting [2], the Kd was 200 pM.

By Kd is commonly meant the constant that tells how readily two partners part at equilibrium.
